The assay deals with IP39, 39-kDa integral membrane protein of Euglena gracilis (Euglena gracilis). Put plainly: cryo-EM structure.

Regarding “IP39, 39-kDa integral membrane protein of Euglena gracilis (natural protein)”, the stoichiometry N (usually the number of molecules, sites or subunits per partner or assembly) stood at 3.

The values are drawn from PMC3644091.
